Source: article PMC13157019 (eBioMedicine, 2026)

T1: rabbit Langerin ectodomain (recombinant) (rabbit)
T1 chain: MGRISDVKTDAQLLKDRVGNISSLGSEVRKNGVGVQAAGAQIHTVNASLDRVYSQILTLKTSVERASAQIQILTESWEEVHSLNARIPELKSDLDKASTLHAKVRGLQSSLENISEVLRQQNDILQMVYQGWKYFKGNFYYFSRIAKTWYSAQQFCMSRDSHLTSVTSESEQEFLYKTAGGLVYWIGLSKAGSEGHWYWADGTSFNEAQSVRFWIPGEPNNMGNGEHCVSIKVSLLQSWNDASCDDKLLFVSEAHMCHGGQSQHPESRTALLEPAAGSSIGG

B1: LC^3.Env^3 (fibritin-stabilised HIV-1 Env gp140z trimer fused to three scFv of the anti-Langerin 4C7 mAb) (scFv, V domains shown)
VH: QVQLQQSGAELVRPGASVTLSCKASGYTFIDHDMHWVQQTPVYGLEWIGAIDPETGDTGYNQKFKGKAILTADKSSRTAYMELRSLTSEDSAVYYCTIPFYYSNYSPFAYWGQGTLVTVSA
VL: QIVLSQSPAILSASPGEKVTMTCRASSSVSYMHWYQRKPGSSPKPWIYATSNLASGVPARFSGSGSGTSYSLTISRVEAEDAATYYCQQWSSNPLTFGAGTKLELK
B2: LC.Env (anti-Langerin 4C7 mAb fused to HIV-1 envelope gp140z from clade C 96ZM651) (antibody, V domains shown)
VH: B1 VH
VL: B1 VL

How the values were obtained:
Test in all cases: SPR
[1] = molecular target: T1, rabbit Langerin ectodomain (recombinant)
[2] = molecular target: mouse Langerin ectodomain (recombinant) (Mus musculus, UniProt Q8VBX4)
[3] = molecular target: human Langerin ectodomain (recombinant) (Homo sapiens, UniProt Q9UJ71)
human Langerin ectodomain (recombinant), sequence (Q9UJ71 65-328): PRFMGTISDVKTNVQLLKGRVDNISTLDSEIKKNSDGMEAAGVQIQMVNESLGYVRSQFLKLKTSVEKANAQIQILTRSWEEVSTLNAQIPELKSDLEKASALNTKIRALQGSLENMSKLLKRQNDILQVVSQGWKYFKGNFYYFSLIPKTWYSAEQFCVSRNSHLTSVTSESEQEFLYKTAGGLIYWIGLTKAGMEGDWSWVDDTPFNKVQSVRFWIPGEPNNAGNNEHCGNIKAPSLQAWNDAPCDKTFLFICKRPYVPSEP

mouse Langerin ectodomain (recombinant), sequence (Q8VBX4 63-331): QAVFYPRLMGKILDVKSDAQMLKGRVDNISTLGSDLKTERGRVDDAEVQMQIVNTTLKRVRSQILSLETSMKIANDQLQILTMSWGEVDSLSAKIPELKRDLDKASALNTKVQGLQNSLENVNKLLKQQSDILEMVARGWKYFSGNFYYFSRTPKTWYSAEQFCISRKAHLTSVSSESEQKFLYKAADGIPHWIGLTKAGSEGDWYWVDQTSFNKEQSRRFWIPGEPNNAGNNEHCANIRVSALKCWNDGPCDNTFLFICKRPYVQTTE

| Binder | Kd [1] [nM] | Kd [2] [nM] | Kd [3] [nM] |
| --- | --- | --- | --- |
| B1 | ~3.5 | ~3.5 | ~3.5 |
| B2 | ~0.7 | ~0.7 | ~0.7 |
